Data published in paper PMC7954794, “Protein context shapes the specificity of SH3 domain-mediated interactions in vivo” (Nature Communications, 2021).

B1: Hof1 (protein, UniProt Q05080 1-669, looked up)
Cytokinesis protein 2: MSYSYEACFWDPNDNGVNILLGHISQGIRSCDSMILFFKQRSELEKDYARRLGAITGKLDKDIGTNMDYGKLNETFNVVLSVEKARAQSHSKQSEILFRQIYTDTKAFAANLQARYTTLSGKIERLRMDKFNKKKGCEVLQKKLQDAQIRFRDLQLNENNMIGAKRVEHNKRELLKWESNSQEYKVQLDVLKQEYKASQKFWIHEWAQLSCELQEMENARISFLQSKLQQFATSSMETYILEQTKMDMLTNHLNSFTAADEISTFSKENGTGRLKHKTSKGDMNSSANWAQMSSISTTSKKTESYMDNIRKLSSQLKETENKRKLASIDKYEKPLPSPEVTMATQFRNSTPVIRNETKVVANPTLSLRSSPVQLQSNVDDSVLRQKPDKPRPIVGEEQLKPDEDSKNPDEKGLMVHKRNQSLSSPSESSSSNPTDFSHIKKRQSMESMTTSVSSMANSIDDSQRFAKSWNSSNRKRKSMSHLQVPSSASSRSDDGGRTPNSAHNLNEDDYNTRRDTSTSTILFKPPVAVRGTSRGHTHRQSMIMQDSSNPIEDALYEMERIQSSSKPGTKTGNIMDERGVVRDRGITVTLPIVTSEGFPVIEYAKAMYPLIGNEAPGLANFHKGDYLLITEIVNKDWYKGEVYDNDRIDRNHRIGLIPYNFIQLLHQGL
B2: Lsb1 (protein, UniProt P53281 2-241, looked up)
LAS seventeen-binding protein …: SASLVNRSLKNIRNELEFLKESNVISGDIFELINSKLPEKWDGNQRSPQNADTEEYVEALYDFEAQQDGDLSLKTGDKIQVLEKISPDWYRGKSNNKIGIFPANYVKPAFTRSASPKSAEAASSSTVSRPSVPPPSYEPAASQYPSQQVSAPYAPPAGYMQAPPPQQQQAPLPYPPPFTNYYQQPQQQYAPPSQQAPVEAQPQQSSGASSAFKSFGSKLGNAAIFGAGSAIGSDIVNSIF
B3: Cyk3 (protein, UniProt Q07533 1-885, looked up)
Cytokinesis protein 3: MATNLTSLKPPFKVKARYGWSGQTKGDLGFLEGDIMEVTRIAGSWFYGKLLRNKKCSGYFPHNFVILLEERLNSSTENGRQPSKIVESFEKSNKVVIPPVPSRYSDERPRPKKKLSSSMPNSPKKPVDSLTKARKAKSKEMVNEKNIYNTQSSRHHNNSAPNLPLASHSKPQVRNFEESMNNPLPPLPPLPDLDNMRKTDKRAPKKSYSANDLHMARSSREYNYYKDNQKFYDGFIPEKRYSLEEDSISSGLFSNSQYLNDSACSSENSFALMSDFSATSAGSFARHKYAQSFSDSLQRSQNANGCSTKINDSQEFGDSNASSRNGKMGDILRKIIIPKRNTNIYSSSVSSPKSPKAYPKLPDIQNLNLSATPDEARDWIAVKCHLNRARTLTKYDKHPRYMRALEENRDLILHPQDSIYNGLNTNEVKGNTKPGLVDVELAELNIEYIDKMTWKRCIRDGTMTLDSWAQTTFSARYSTVLEKLRGIYIFCTEMFALTDDNGTSDFSAEPQNLEKILYRKHCTPYELTWLFKKLANSLGITCEIVIGFLKTPSAINWEFKYNHCWLRILVNKEWRFIDVILGNVTNPIHEFVNNRKIKKAENSYFLMAPLEMIYTHIPPREFEQHIVPSIDQLSALYLPLVFPSFFKNELKLYKFSTALSFLEDSEIYECSLEIPNDVEVFASVVIPTDNEEASSAYRNMELALTQIKKQKAESGRRIALIKAVLPPNVNKGSLYIHSGVRGTQTSIANIHPLSMMVPLTHKGSNMKYEFVIKIPSESIQKIELYIVEPQSRYLFVGNEYSFEVIQSPSDGIVYSSDEGPNQNRKQPMAIKSPSGRVHELVKSDPHFPYGTWKGSIKIKEPGVWSALVIADSGIGWSVFAEWLCV
B4: Hse1 (protein, UniProt P38753 2-452, looked up)
Class E vacuolar …: SSSAIKIRNALLKATDPKLRSDNWQYILDVCDLVKEDPEDNGQEVMSLIEKRLEQQDANVILRTLSLTVSLAENCGSRLRQEISSKNFTSLLYALIESHSVHITLKKAVTDVVKQLSDSFKDDPSLRAMGDLYDKIKRKAPYLVQPNVPEKHNMSTQADNSDDEELQKALKMSLFEYEKQKKLQEQEKESAEVLPQQQQQHQQQNQAPAHKIPAQTVVRRVRALYDLTTNEPDELSFRKGDVITVLEQVYRDWWKGALRGNMGIFPLNYVTPIVEPSKEEIEKEKNKEAIVFSQKTTIDQLHNSLNAASKTGNSNEVLQDPHIGDMYGSVTPLRPQVTRMLGKYAKEKEDMLSLRQVLANAERSYNQLMDRAANAHISPPVPGPALYAGMTHANNTPVMPPQRQSYQSNEYSPYPSNLPIQHPTNSANNTPQYGYDLGYSVVSQPPPGYEQ
B5: Fus1 (protein, UniProt P11710 1-512, looked up)
Nuclear fusion protein FUS1: MVATIMQTTTTVLTTVAAMSTTLASNYISSQASSSTSVTTVTTIATSIRSTPSNLLFSNVAAQPKSSSASTIGLSIGLPIGIFCFGLLILLCYFYLKRNSVSISNPPMSATIPREEEYCRRTNWFSRLFWQSKCEDQNSYSNRDIEKYNDTQWTSGDNMSSKIQYKISKPIIPQHILTPKKTVKNPYAWSGKNISLDPKVNEMEEEKVVDAFLYTKPPNIVHIESSMPSYNDLPSQKTVSSKKTALKTSEKWSYESPLSRWFLRGSTYFKDYGLSKTSLKTPTGAPQLKQMKMLSRISKGYFNESDIMPDERSPILEYNNTPLDANDSVNNLGNTTPDSQITSYRNNNIDLITARPHSVIYGTTAQQTLETNFNDHHDCNKSTEKHELIIPTPSKPLKKRKKRRQSKMYQHLQHLSRSKPLPLTPNSKYNGEASVQLGKTYTVIQDYEPRLTDEIRISLGEKVKILATHTDGWCLVEKCNTQKGSIHVSVDDKRYLNEDRGIVPGDCLQEYD

The molecules below were run on Abp1 PPIs (assay: DHFR-PCA of Abp1 SH3-swapped baits (Fig. 2B-D, S2C, S2F)). Conditions: number of interactions of Abp1 carrying the named SH3; sheet FigS2A-B.
Format: cell-based, Saccharomyces cerevisiae
Description: Having determined that multiple PPIs require SH3s, we asked whether the latter establish PPI specificity independently from their host proteins by swapping domains (Fig. 2A). Using the second round of genome editing, we individually replaced Abp1 SH3 with the 27 yeast SH3s and 3 human Abp1 orthologs’ SH3s (CTTN, HCLS1, and DBNL, Fig. 2B). The reintroduction of its own SH3 (Abp1SH3 in Abp1) reconstitutes almost perfectly Abp1’s interaction profile (Kendall’s τ = 0.93, Fig. 2B). […] No homologous SH3 domain fully re-establishes the normal Abp1 PPI profile (Fig. 2B and Supplementary Fig. 2C). However, we observe a significant correlation (cophenetic correlation = 0.20, p value = 0.005, Fig. 2C) between the similarity of PPI profiles (Fig. 2B) and the sequence similarity of the SH3s. […] Nonetheless, a subset of SH3-dependent PPIs is only observed with the endogenous domain. For instance, Hua2 and App1, both well-characterized partners of Abp1[14],[18],[19], are only detected when Abp1 contains its own SH3 (WT or swapped via editing). A given SH3 may therefore not be fully replaceable with other paralogous or orthologous domains. This pattern is confirmed by cellular growth phenotypic analyses (Supplementary Fig. 2D, E). PPIs, SH3 sequence similarity, and growth profiles under stress conditions are correlated (Supplementary Fig. 2D, E). This relationship is particularly clear when analyzing growth on media supplemented with hygromycin.
The stuffing of YSC84 SH3 rendered the strain sterile and was therefore not used for this study as the assays require crosses. For genes containing two SH3s (BZZ1 and BEM1), a combination of this first stuffer with a second one ([…]) coding for a highly similar linker ([…]) was used, which allowed targeting each SH3 position independently. The two N-terminal domains of SLA1, which are separated by six nucleotides, were stuffed by a single stuffer. Cells containing pCAS were selected via the G418 resistance cassette from the plasmid on YPD plates (YPD + NAT 100 μg/ml (DHFR F[1,2] selection) + G418 200 µg/mL (Bioshop Canada)). Colonies were randomly selected and grown in YPD media without G418 to allow plasmid loss. The correct insertion of the stuffer was validated by PCR and Sanger sequencing. The SH3-swapped, -shuffled, and -mutated strains were constructed following a second CRISPR–Cas9 editing step with the same procedures. The stuffer sequences were targeted by specific gRNAs (one gRNA per stuffer) and replaced by PCR amplified specific SH3 (with 40 bp homology arms) or libraries of mutated SH3 domains for Deep Mutational Scanning (DMS) with 78 bp flanking homology regions. Validation of the SH3 domain insertions was done as we previously described except for DMS libraries (see below).
The overall DHFR-PCA pipeline is based on Tarassov et al.[43] and the procedures have also been published as a visualized protocol. The screens were performed with robotically manipulated pin tools (BM5-SC1, S&P Robotics Inc.). First, the preys were cherry-picked from 96-well plates to omnitrays in a 384 format on YPD + HPH solid media. Plates were then combined into the 1536 format on YPD + HPH. The array was constituted of 575 preys previously shown to interact physically with at least one SH3-containing protein as reported in BioGRID V3.4.16 along with 40 negative controls. The prey array comprised a border of control strains of two rows and two columns corresponding to the PPI between LSM8-DHFR F[1,2] and CDC39-DHFR F[3]. This double border was used to remove border effects. Preys are present in duplicate at a randomized position in the 1536 array (except for YAL041W which is present four times per array). Baits were crossed with two prey plates, resulting in four independent bait–prey tests for each PPI. Baits were grown in liquid YPD + NAT and then transferred on solid YPD + NAT omnitrays. They were then replicated on YPD + NAT omnitrays in 1536 array format. […]

Molecule	Interactions in Abp1
B1	15
B2	106
B3	25
B4	77
B5	50

These molecules were tested on Abp1 (1xFLAG) (assay: Western blot expression level of Abp1 SH3-swapped baits (Fig. S2A-B)). Conditions: Flag signal relative to Abp1 WT (Abp1-1 to Abp1-4 = 1); sheet FigS2A-B.
Format: cell-based, Saccharomyces cerevisiae
Design: Flag (2 bands): unit not given here
Experimental: Precultures of yeast cells expressing baits fused with the DHFR F[1,2]-FLAG were grown overnight at 30 °C with agitation in synthetic complete medium. The next day, cells were expanded in synthetic complete medium to reach their exponential phase (OD600 of around 1.0), pelleted, and frozen at −80 °C. The equivalent of fifty OD600 of cells was resuspended in ice-cold yeast lysis buffer (10 mM Tris-HCl pH 7.4, 150 mM NaCl, 0.5 mM EDTA (Millipore Sigma), 1% Triton X-100 (Millipore Sigma), and one cOmplete Mini Protease Inhibitor Cocktail (Millipore Sigma) per 10 mL) with […] glass beads (Millipore Sigma) and disrupted at 4 °C by 10 cycles of 2 min vortexing and 2 min cooldown. The equivalent of […] of lysed cells was used for the immunoprecipitation of the bait proteins using FLAG-M2 agarose beads (Millipore Sigma). The beads were incubated with the cell lysates for 120 min at 4 °C with a slow rotation, followed by three washes with the yeast lysis buffer.
Protein extracts and affinity-purified baits from yeast and human lysed cells were migrated on 10% polyacrylamide gels. The separated proteins were then transferred to nitrocellulose membranes. Validation of correct protein loading was done with ponceau staining of the membranes. Before the primary antibody incubations, membranes were blocked in 5% milk. Protein signals were detected on an Amersham Imager 600RGB (GE Healthcare) following the incubation of the membranes with the appropriate HRP-conjugated secondary antibodies and the Clarity Western ECL Substrate (Bio-Rad). The antibodies used in this study are M2-HRP (A8592, Sigma, 1/50,000), rabbit anti-FLAG (F7425, Sigma, 1/1000), PAK (SC-881, Santa Cruz, 1/200), p130cas/BCAR1 (SC-860, Santa Cruz, 1/200), actin (Cell Signaling Technology, 1/2000), anti-mouse HRP (Cell Signaling Technology, 1/10,000) and anti-rabbit HRP (Cell Signaling Technology, 1/10,000). The quantification of the WB signals was performed with the Amersham Imager 600 analysis software (GE Healthcare).

Molecule	Ratio Swap/WT Flag
B1	1.051
B2	0.4741
B3	0.2689
B4	0.5073
B5	0.8195

Same assay, conditions: Western blot Flag signal (2 bands), Abp1 WT, SH3-deleted or SH3-swapped; sheet FigS2A-B

Molecule	Flag (2 bands)
B1	112286
B2	50638
B3	59466
B4	54180
B5	181205
